{
  "source": "patent US20120315284",
  "key": {"[1]": {"molecular_target": "recombination GST-JNK1, P45983"}, "[2]": {"molecular_target": "T1, GST-c-Jun, P05412", "T1 chain": "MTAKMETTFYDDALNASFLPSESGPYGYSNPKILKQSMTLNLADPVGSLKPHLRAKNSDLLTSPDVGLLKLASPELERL"}},
  "data": [
    {"protein": "MKK7 in cell lysate (immunoprecipitated with MKK7 antibody; the cells' own MKK7) (protein) AASSLEQKLSRLEAKLKQENREARRRIDLNLDISPQRPRPTLQLPLANDGGSRSPSSESSPQHPTPPARPRHMLGLPSTLFTPRSMESIEIDQKLQEIMKQTGYLTIGGQRYQAEINDLENLGEMGSGTCGQVWKMRFRKTGHVIAVKQMRRSGNKEENKRILMDLDVVLKSHDCPYIVQCFGTFITNTDVFIAMELMGTCAEKLKKRMQGPIPERILGKMTVAIVKALYYLKEKHGVIHRDVKPSNILLDERGQIKLCDFGISGRLVDSKAKTRSAGCAAYMAPERIDPPDPTKPDYDIRADVWSLGISLVELATGQFPYKNCKTDFEVLTKVLQEEPPLLPGHMGFSGDFQSFVKDCLTKDHRKRPKYNKLLEHSFIKRYETLEVDVASWFKDVMAKTESPRTSGVLSQPHLPFFR", "values": [
      {"measurement": "in vitro immune-co-kinase analysis (32P phosphorylation by immunoprecipitated MKK7)", "setting": "[1]", "result": "MKK7 was activated by depletion of TIP41 and phosphorylated GST-JNK1, a substrate of MKK7"}
    ]},
    {"protein": "recombination GST-JNK1 (protein) MSRSKRDNNFYSVEIGDSTFTVLKRYQNLKPIGSGAQGIVCAAYDAILERNVAIKKLSRPFQNQTHAKRAYRELVLMKCVNHKNIIGLLNVFTPQKSLEEFQDVYIVMELMDANLCQVIQMELDHERMSYLLYQMLCGIKHLHSAGIIHRDLKPSNIVVKSDCTLKILDFGLARTAGTSFMMTPYVVTRYYRAPEVILGMGYKENVDLWSVGCIMGEMVCHKILFPGRDYIDQWNKVIEQLGTPCPEFMKKLQPTVRTYVENRPKYAGYSFEKLFPDVLFPADSEHNKLKASQARDLLSKMLVIDASKRISVDEALQHPYINVWYDPSEAEAPPPKIPDKQLDEREHTIEEWKELIYKEVMDLEERTKNGVIRGQPSPLAQVQQ", "values": [
      {"measurement": "in vitro immune-co-kinase analysis (32P phosphorylation)", "setting": "[2]", "result": "the activated JNK1 phosphorylated GST-c-jun protein, a substrate of JNK pathway"}
    ]}
  ]
}
